What was measured:
EPHB1 = EPHB1 (UniProt P54762); test: phosphorylation enrichment, bacterial display (enrichment ratio); higher = better substrate or ligand; peptides without Tyr show the background
Fes = Fes (UniProt P07332); test: as above
FGFR3 = FGFR3 (UniProt P22607); test: as above
c-Src = test: as above
Fyn = Fyn (UniProt P06241); test: as above
c-Abl (mouse) = test: as above
Hck = Hck (UniProt P08631); test: as above
MERTK = MERTK (UniProt Q12866); test: as above
AncSZ = test: as above
EPHB2 = EPHB2 (UniProt P29323); test: as above
Fer (mouse) = test: as above
FGFR1 = FGFR1 (UniProt P11362); test: as above
Jak2 = Jak2 (UniProt O60674); test: as above
Grb2 SH2 = Grb2 SH2 (UniProt P62993); test: SH2 binding enrichment of the phosphorylated peptide, bacterial display (enrichment ratio); higher = better substrate or ligand; peptides without Tyr show the background
SHP2-C SH2 = test: as above
c-Src SH2 = test: as above
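For SH2 binding enrichment of the phosphorylated peptide, bacterial display in this document: peptide library displayed on the E. coli surface as eCPX fusions, selected cells deep-sequenced, score is each peptide's frequency after selection divided by its frequency in the input.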
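For phosphorylation enrichment, bacterial display in this document: 11-residue human phosphosite peptides and single-mutation variants displayed on the E. coli surface, counted by deep sequencing, each peptide's frequency after selection divided by its frequency in the unselected input library; frequency after pTyr selection over input frequency; kinase dosed for 20-30% of maximal phosphorylation in three min.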

Sequence of EPHB1 (P54762 whole entry, looked up): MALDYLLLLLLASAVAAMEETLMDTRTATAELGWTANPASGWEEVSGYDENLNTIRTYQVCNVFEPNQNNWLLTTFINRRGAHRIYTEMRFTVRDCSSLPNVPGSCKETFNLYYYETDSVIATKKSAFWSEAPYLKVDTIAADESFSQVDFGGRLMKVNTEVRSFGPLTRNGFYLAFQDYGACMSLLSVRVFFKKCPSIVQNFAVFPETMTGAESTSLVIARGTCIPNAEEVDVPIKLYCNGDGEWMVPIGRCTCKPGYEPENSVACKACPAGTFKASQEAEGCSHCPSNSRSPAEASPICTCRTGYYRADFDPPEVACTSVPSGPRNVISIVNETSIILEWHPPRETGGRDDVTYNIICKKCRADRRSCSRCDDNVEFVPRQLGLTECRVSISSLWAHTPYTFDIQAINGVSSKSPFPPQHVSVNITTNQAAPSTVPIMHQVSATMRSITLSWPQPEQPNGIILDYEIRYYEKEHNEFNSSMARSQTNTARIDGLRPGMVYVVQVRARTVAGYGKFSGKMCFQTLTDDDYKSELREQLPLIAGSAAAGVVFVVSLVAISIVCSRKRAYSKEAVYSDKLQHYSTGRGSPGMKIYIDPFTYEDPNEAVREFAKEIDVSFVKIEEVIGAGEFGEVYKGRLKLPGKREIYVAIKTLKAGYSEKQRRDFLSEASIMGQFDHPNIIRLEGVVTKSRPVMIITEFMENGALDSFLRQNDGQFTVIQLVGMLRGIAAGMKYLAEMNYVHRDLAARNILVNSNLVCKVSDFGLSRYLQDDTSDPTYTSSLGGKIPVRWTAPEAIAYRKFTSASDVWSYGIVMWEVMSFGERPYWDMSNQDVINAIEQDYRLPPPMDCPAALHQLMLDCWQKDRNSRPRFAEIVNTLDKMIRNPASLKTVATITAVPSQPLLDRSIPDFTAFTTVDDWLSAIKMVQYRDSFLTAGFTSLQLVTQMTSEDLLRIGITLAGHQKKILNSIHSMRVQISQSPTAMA
Sequence of MERTK (Q12866 whole entry, looked up): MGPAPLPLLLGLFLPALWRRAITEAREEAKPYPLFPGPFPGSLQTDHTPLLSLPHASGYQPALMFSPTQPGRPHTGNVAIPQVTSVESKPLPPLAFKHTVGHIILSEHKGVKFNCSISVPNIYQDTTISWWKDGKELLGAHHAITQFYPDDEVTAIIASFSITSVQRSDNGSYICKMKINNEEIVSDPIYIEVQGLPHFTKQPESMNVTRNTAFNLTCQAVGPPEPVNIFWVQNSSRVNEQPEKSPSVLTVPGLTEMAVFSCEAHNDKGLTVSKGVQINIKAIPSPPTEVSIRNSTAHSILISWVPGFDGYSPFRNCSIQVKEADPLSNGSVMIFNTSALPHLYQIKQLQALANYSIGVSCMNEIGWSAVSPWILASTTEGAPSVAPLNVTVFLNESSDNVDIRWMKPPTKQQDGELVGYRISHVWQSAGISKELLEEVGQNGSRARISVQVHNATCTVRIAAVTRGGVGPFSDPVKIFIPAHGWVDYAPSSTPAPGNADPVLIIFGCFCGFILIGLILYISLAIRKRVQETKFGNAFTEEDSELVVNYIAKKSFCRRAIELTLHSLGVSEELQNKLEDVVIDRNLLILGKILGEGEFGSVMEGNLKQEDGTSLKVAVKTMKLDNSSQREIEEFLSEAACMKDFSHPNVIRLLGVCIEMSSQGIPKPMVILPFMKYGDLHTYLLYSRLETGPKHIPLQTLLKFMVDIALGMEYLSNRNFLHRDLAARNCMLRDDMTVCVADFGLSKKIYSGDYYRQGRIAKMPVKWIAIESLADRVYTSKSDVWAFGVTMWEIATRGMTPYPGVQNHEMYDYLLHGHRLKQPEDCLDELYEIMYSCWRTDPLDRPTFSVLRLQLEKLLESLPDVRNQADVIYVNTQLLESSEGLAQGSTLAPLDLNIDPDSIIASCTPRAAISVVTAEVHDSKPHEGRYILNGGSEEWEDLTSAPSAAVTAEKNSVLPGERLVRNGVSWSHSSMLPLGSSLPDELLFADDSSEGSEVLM
Sequence of FGFR1 (P11362 whole entry, looked up): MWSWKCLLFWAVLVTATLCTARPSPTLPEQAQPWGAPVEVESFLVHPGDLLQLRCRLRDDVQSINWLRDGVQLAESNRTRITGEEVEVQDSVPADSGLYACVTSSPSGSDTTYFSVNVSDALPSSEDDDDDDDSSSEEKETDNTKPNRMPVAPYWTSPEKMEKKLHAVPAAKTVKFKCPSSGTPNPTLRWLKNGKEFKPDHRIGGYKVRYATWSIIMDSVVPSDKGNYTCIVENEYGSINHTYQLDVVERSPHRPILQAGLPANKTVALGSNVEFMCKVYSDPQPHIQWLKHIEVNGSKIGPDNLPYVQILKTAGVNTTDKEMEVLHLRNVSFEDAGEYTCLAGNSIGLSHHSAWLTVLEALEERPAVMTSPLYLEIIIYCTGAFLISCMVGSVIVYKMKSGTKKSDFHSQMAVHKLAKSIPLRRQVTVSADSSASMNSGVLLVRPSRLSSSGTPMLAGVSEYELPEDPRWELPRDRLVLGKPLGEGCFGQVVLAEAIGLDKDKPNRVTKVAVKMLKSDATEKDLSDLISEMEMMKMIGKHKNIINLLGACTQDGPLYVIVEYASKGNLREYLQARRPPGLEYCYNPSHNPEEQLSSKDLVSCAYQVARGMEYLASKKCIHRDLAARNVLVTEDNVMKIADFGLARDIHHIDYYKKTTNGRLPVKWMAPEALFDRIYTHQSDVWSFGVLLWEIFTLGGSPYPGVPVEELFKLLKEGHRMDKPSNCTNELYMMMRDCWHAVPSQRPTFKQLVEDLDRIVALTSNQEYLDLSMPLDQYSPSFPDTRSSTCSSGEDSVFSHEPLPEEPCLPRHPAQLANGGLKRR
Sequence of Hck (P08631 whole entry, looked up): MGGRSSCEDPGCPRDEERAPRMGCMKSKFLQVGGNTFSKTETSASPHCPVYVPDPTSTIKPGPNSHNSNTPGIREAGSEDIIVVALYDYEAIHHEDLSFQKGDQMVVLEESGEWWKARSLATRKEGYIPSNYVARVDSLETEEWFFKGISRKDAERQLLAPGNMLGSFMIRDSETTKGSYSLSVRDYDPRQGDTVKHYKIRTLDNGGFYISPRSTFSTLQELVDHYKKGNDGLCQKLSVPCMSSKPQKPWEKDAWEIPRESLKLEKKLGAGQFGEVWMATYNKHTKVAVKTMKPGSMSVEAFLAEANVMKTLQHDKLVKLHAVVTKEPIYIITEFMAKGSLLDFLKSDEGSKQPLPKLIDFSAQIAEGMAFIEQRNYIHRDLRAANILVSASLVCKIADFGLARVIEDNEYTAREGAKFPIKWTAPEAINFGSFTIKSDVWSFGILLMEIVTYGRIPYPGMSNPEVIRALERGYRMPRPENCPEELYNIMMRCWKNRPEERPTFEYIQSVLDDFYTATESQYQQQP
Sequence of Jak2 (O60674 whole entry, looked up): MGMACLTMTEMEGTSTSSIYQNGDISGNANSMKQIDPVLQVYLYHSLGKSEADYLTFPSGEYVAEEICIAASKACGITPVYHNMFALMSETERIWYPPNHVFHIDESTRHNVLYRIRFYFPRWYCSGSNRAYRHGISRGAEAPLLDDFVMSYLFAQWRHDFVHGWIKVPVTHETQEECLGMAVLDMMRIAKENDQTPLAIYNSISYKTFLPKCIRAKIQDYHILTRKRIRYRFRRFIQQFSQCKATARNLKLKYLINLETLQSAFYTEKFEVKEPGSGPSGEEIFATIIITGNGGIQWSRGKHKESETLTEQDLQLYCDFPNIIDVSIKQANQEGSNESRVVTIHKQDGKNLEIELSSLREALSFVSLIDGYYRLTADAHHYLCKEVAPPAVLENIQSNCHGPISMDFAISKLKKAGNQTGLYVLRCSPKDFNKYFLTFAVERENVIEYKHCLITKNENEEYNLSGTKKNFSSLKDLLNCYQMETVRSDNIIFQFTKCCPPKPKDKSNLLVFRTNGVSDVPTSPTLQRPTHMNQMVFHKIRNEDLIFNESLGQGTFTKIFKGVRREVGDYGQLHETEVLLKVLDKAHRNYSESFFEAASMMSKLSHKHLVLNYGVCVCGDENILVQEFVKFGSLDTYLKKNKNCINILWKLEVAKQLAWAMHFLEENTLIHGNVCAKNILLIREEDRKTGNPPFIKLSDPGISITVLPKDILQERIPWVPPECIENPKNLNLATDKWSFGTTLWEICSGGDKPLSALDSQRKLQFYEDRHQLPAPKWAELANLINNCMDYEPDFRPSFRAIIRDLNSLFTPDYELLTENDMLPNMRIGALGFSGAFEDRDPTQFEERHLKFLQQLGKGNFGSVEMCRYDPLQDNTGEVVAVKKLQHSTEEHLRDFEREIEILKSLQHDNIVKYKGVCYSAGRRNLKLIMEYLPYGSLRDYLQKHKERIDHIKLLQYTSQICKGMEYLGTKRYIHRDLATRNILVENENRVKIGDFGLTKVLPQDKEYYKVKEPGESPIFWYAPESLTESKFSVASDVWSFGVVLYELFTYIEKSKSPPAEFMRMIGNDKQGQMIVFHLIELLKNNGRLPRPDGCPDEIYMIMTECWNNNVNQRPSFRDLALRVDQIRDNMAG
Sequence of Fyn (P06241 whole entry, looked up): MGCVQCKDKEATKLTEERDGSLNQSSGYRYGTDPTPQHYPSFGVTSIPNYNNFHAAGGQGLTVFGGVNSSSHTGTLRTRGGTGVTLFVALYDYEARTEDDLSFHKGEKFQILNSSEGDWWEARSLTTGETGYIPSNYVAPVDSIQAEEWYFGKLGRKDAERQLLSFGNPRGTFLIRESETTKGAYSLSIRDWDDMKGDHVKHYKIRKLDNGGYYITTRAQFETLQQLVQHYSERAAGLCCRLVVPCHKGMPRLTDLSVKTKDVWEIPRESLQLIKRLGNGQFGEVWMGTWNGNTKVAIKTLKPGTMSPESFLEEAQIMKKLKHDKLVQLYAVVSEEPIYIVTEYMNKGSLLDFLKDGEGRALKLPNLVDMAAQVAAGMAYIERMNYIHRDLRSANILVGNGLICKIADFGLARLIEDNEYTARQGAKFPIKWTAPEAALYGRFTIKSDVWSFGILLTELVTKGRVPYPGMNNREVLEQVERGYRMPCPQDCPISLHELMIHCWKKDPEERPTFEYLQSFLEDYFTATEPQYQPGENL

Row | Sequence | SH2 binding enrichment (Grb2 SH2) | SH2 binding enrichment (SHP2-C SH2) | SH2 binding enrichment (c-Src SH2) | phosphorylation enrichment (EPHB1) | phosphorylation enrichment (Fes) | phosphorylation enrichment (FGFR3) | phosphorylation enrichment (c-Src) | phosphorylation enrichment (Fyn) | phosphorylation enrichment (c-Abl (mouse)) | phosphorylation enrichment (Hck) | phosphorylation enrichment (MERTK) | phosphorylation enrichment (AncSZ) | phosphorylation enrichment (EPHB2) | phosphorylation enrichment (Fer (mouse)) | phosphorylation enrichment (FGFR1) | phosphorylation enrichment (Jak2)
1 | RMLREYQELMS [KRT74_Y425] | 1.13 | 0.962 | 5.24 | 0.66 | 0.837 | 0.555 | 0.57 | 0.699 | 0.663 | 0.532 | 0.527 | 0.821 | 0.432 | 0.357 | 0.95 | 0.611
2 | RMSQRYGDVLQ [CYP1A2_Y72] | 0.788 | 0.518 | 0.294 | 0.399 | 0.967 | 0.769 | 0.595 | 0.431 | 0.747 | 0.336 | 0.481 | 1.03 | 0.41 | 0.644 | 0.89 | 0.744
3 | RMSQRYRDVLQ [CYP1A2_Y72_G73R] | 0.719 | 0.548 | 0.495 | 0.422 | 1.08 | 0.549 | 0.745 | 0.593 | 0.769 | 0.66 | 0.522 | 1.11 | 0.719 | 0.396 | 0.484 | 0.905
4 | RNESFYDTFST [EFCAB3_Y372] | 0.826 | 0.913 | 0.542 | 17.3 | 1.46 | 0.915 | 10.5 | 16.4 | 2.23 | 14.3 | 15.6 | 1.07 | 21 | 13.2 | 0.852 | 0.891
5 | RPFRPYIIRGM [LRP5_Y1531_YF] | 0.735 | 0.625 | 0.482 | 0.633 | 1.2 | 0.88 | 0.647 | 0.611 | 0.532 | 0.655 | 0.781 | 1.14 | 0.709 | 0.456 | 1.03 | 0.748
6 | RQQQDYWLMDV [ANPEP_Y600_I603M] | 0.896 | 0.815 | 0.634 | 7.32 | 1.01 | 13.1 | 0.509 | 0.537 | 0.587 | 0.487 | 3.29 | 1.8 | 3.72 | 1.03 | 18 | 1.26
7 | RRETPYGGGGG [FUS_Y526_R524T] | 0.685 | 0.54 | 0.477 | 0.568 | 0.68 | 1.07 | 0.628 | 0.718 | 0.487 | 0.604 | 0.721 | 0.769 | 0.62 | 0.438 | 0.957 | 0.551
8 | RRKRAYVEIEF [MAK16_Y282_Q277R_YF] | 0.504 | 0.459 | 0.434 | 0.582 | 0.828 | 0.871 | 0.542 | 0.58 | 0.58 | 0.505 | 0.759 | 0.665 | 0.658 | 0.551 | 0.563 | 0.593
9 | RSHLPYDVTPE [IQGAP3_Y1098] | 0.827 | 0.974 | 0.588 | 0.572 | 1.45 | 0.747 | 1.27 | 0.848 | 1.39 | 0.695 | 1 | 1.82 | 0.742 | 0.474 | 0.752 | 2.28
10 | RWGQKYMTAVV [CYBA_Y72] | 1.57 | 0.698 | 0.948 | 0.494 | 0.665 | 0.884 | 0.312 | 0.488 | 0.328 | 0.609 | 0.452 | 0.731 | 0.783 | 0.568 | 0.654 | 0.409

Further lines, with some results ahead:

Row | SH2 binding enrichment (Grb2 SH2) | SH2 binding enrichment (SHP2-C SH2) | SH2 binding enrichment (c-Src SH2) | Sequence | phosphorylation enrichment (EPHB1) | phosphorylation enrichment (Fes) | phosphorylation enrichment (FGFR3) | phosphorylation enrichment (c-Src) | phosphorylation enrichment (Fyn) | phosphorylation enrichment (c-Abl (mouse)) | phosphorylation enrichment (Hck) | phosphorylation enrichment (MERTK) | phosphorylation enrichment (AncSZ) | phosphorylation enrichment (EPHB2) | phosphorylation enrichment (Fer (mouse)) | phosphorylation enrichment (FGFR1) | phosphorylation enrichment (Jak2)
11 | 1.21 | 0.725 | 0.634 | RNNIEYVRDIG [MUSK_Y577] | 0.437 | 0.693 | 0.58 | 0.416 | 0.369 | 0.602 | 0.395 | 0.3 | 0.676 | 0.404 | 0.426 | 0.413 | 0.436
12 | 0.749 | 0.433 | 0.492 | RPGGRYPVARR [SHANK3_Y1569_S1566G] | 0.468 | 0.899 | 0.599 | 0.664 | 0.647 | 0.657 | 0.626 | 0.775 | 0.734 | 0.563 | 0.667 | 0.648 | 0.478
13 | 0.691 | 0.665 | 0.385 | RQAQAYRGQRV [TSHR_Y706] | 0.564 | 1.51 | 1 | 1.36 | 1 | 1.25 | 0.839 | 0.831 | 1.82 | 0.99 | 0.909 | 1.23 | 1.62
14 | 1.47 | 1.19 | 1.03 | RQSTLYSFFPK [MSH6_Y8] | 18.4 | 1.77 | 5.16 | 7.83 | 5.84 | 5.61 | 14.6 | 22.1 | 1.34 | 18.9 | 4.37 | 6.8 | 0.685
15 | 0.774 | 0.465 | 0.501 | RRIYSYRGHLW [VHL_Y112_H110Y] | 1.17 | 1.68 | 0.725 | 1.26 | 0.986 | 0.776 | 0.667 | 1.24 | 1.45 | 0.659 | 1.02 | 1.2 | 0.691
16 | 0.608 | 0.683 | 0.407 | RRVLVYGGRGA [QDPR_Y16] | 0.488 | 0.681 | 0.702 | 0.674 | 0.563 | 0.575 | 0.597 | 0.549 | 1.1 | 0.822 | 0.716 | 0.357 | 0.361
17 | 0.973 | 0.712 | 0.686 | RRYLYYYSYLL [PTEN_Y177_V175L] | 1.13 | 1.75 | 1.93 | 1.68 | 0.816 | 1.02 | 1.17 | 5.8 | 1.13 | 0.91 | 1.24 | 1.74 | 3.29
